In patent publication US20190201487:

Target: T1, neonatal NET-Inhibitory Factor (nNIF)
T1 chain: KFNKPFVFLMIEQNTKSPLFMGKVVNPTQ

B1: neutrophil elastase (NE) (protein)
chain: IVGGRRARPHAWPFMVSLQLRGGHFCGATLIAPNFVMSAAHCVANVNVRAVRVVLGAHNLSRREPTRQVFAVQRIFENGYDPVNLLNDIVILQLNGSATINANVQVAQLPAQGRRLGNGVQCLAMGWGLLGRNRGIASVLQELNVTVVTSLCRRSNVCTLVRGRQAGVCFGDSGSPLVCNGLIHGIASFVRGGCASGLYPDAFAPVAQFVNWIDSIIQ
  NE enzyme activity in vitro (cleavage of (MeOSuc)-AAPV-(pNA)): neither nNIF nor CRISPP inhibited NE activity
